Assay results taken from article PMC11711090.

How the values were obtained:
[1] = biological target: nCPEB4(NTD), N-terminal domain of neuronal CPEB4 (with microexon 4) (human) (UniProt Q17RY0); assay: SEC-MALS
[2] = biological target: CPEB4 extracted from the brains of 6-month-old TgCPEB4Δ4 mice (human | mouse (endogenous in brain)) (UniProt Q17RY0); assay: SEC + other: SDD-AGE

Row | stoichiometry N [1] | aggregated CPEB4 eluting in the void volume, normalized to control mice [2] | Substance
1 | 350 | – | nCPEB4(NTD), N-terminal domain of neuronal CPEB4 (with microexon 4) (from UniProt Q17RY0-2 1-448) (domain or fragment)
2 | – | 10.8 | CPEB4 extracted from the brains of 6-month-old TgCPEB4Δ4 mice (from UniProt Q17RY0 1-729; Q7TN98 1-729) (natural protein)
